From a protein production outcome set (Wang et al. 2014)

Assay: label from the status in PepcDB records

| Sequence | protein production |
| --- | --- |
| MTVNVENVEPELNIEIGPNWFASVMGTGIIANAAVGLPMVGQYLGQAGLVIWVIASLMLIVMLLLKAVQTITNPHIIKRQFNDPVMAQFFGAPPMALLTIAGGTLLFGHHFFAQDTLMVIAWSLWITGTIVGMMTAVIIPYRLFTHHEVRGDAAFGGWLMPVVPPMVSAAIGAMFIPHVQDTLLQQTLLYACYAMFGTSLIAAMIILTLIWGRLVHSGTSGGARVPTLWLVLGPLGQSITAAGALGAVALAVVEQPIAGSLNTMAILYGVPVWGFAFYWSILASFLTLRALRRKMPFALTWWAFTFPVGTCVTGTTQLALHTGLPAFEWAAVILFAGLLCAWVIAALGTIKGIKTGHIMKNPVSSPVIIAKKGPR | failed |
| MSESIVTKIISIVQERQNMDDGAPVKTRDIADAAGLSIYQVRLYLEQLHDVGVLEKVNAGKGVPGLWRLLLEHHHHHH | not failed |
| MRETFEIGEIVTGIYKTGKYIGEVTNSRPGSYVVKVLAVLKHPVQGDLHNVKQANVPFFHERRALAFREQTNIPEQMVKKYEGEIPDYTESLKLALETQMNSFSEDDSPFAERSLETLQQLKKDYKL | not failed |
| MKALFFTRMFTLMVSCLMYLSIVKEDNWFGYVFIAAGAAMYAANHVLLTKETNAIWFCLIDIAIGFSFGFIFPGTGLFIIMLCPVAVAFFLRGFPKRTAWSVLCLSSILFLTVLIRTYAMFGNEFVIDHLTSMTFVVFCGVVGKLIRKLLDAQDTAKQQFQELTESHLALSAAHQELHLYAKQVEELTAIYERNRMAREIHDTVGHKMTALLVQLQLLREWQKRDSQKADETVGVCETLAREALDDVRLSVRTLQTENDPSLIESLKQLTEDFCKNAGVTTEFAVSGDPAIIPLSLHPTLIRTVQEALTNAKRHGGAAACSIQLACTTDSISLVIKDDGKGNPEAALGFGLLNMKKRAAEHGGMIRFESERDQGFTVNAEFSLANKKWSFGPVQQKESLS | failed |
| SKIYDNKNQLIADLGSERRVNAQANDIPTDLVKAIVSIEDHRFFDHRGIDTIRILGAFLRNLQSNSLQGGSTLTQQLIKLTYFSTSTSDQTISRKAQEAWLAIQLEQKATKQEILTYYINKVYMSNGNYGMQTAAQNYYGKDLNNLSLPQLALLAGMPQAPNQYDPYSHP | failed |
| MTVTATSVDEPEQLEPQAAPASRGARRVRRLVPAAAATLSGVLLYVSFPPRTLWWLALPAFAVLGWALRDRTWKAGLGLGYLFGLGFLLPLLVWTGVEVGPGPWLALAVVEAVFVALVGAGIAMVSRLPAWPLWAAALWIAGEAARARAPFGGFPWGKIAFGQADGVFLPLAAAGGTPVLGFAVVLCGFGLYEIVRQVVDGRRTGVVRRGAAAVALLSVAVPVVGALAARSLVSDKAEDGTATVAVIQGNVPRSGLEFNAQRRAVLDHHARETERLAAKIKAGKVAQPDFVLWPENSSDIDPFTNPDARAVIDSAAKAVGVPISVGGVVERDGKLYNEQILWDPAKGALDTYDKRQVQPFGEYLPLRSLLGAINKNWTSMVRQDFSRGTEPGVFTMAGTKVGLATCYEAAFDWAVRDNITHGAQIISVPSNNATFDRSEMTYQQLAMSRVRAVEHSRTVTVPVTSGVSAVIMPDGKITQKTGMFVADSLVQKVPLRSSQTPATRLGILPEMVLVLVAAGGLGWSVAAVVRGRRNDALQG | failed |
| MYTITDIAPTDAEFIALIAALDAWQETLYPAESNHLLDLSQLPPQTVIALAIRSPQGEAVGCGAIVLSEEGFGEMKRVYIDPQHRGQQLGEKLLAALEAKARQRDCHTLRLETGIHQHAAIALYTRNGYQTRCAFAPYQPDPLSVFMEKPLFADLRSAAL | not failed |
| MERLTSPPRLMIVSDLDETMVDHHKDPENLALLRFNSLWEDAYRHDSLLVFSTGRAQTMYKKLRKEKPLLTPDVIITSVGTEIAYGNSMVPDDNWVEILNKKWDRGIVQEETSKFPELTLQGETEQRPHKLSFNIDKSKVKAVTKELSPRLEKRGVDVKFIFSGGNAFDVLAKGGGKGQALAYLLKKLKTEGKLPINTLACGDSGNDTELFTIPNVYGVMVSNAQEELLEWYAENAKDNANIIHASERCAGGITQAIGHFKLGPNLSPRDVSDFLECKADNVNPGHEVVKFFLFYERWRRGEVENCTTYTSSLKASCHPSGVFVHPSGAEKSLRDTIDELGKYYGDKKGKKFRVWTDQVLATDTTPGTWIVKLDKWEQTGDERKCCTTTVKFTSKEGEGFVWEHVQQIWSEETEIKDDSNWII | failed |
| MIKEWATVVSWQNGQAVVSCDVKASCSSCASRAGCGSRVLNKLGPQTTHTIVVPSAEPLAPGQKVELGIAEKSLLGSALLVYMSPLAGLFLCAALFQMLFGSDLAALSGAVLGGVGGFLVARGYSRKLAERDAWQPVILNVALPPDLVRVETTSIETRQ | failed |
| MFGFFSPAPAIPRLPKDKVSSAYKAYRIRMFLMIFIGYTGYYLVRKNFAVASPYLIDNYGFSKTQIGLISMGLAVSYGLSKFILGNLSDKSNVKKFICFGLIASSVLSVLMGFARTVPIFLILMVFNGFFQGMGAPPCSIVLGKWFSQKERGLKMGIWNTSHNIGGGLIAPIATLCLLVFGQNHFQSIFFVPAIICTIVALFCYVIGADTPASVGLPPVEEYRNDYPEVKAEVNPTTLSSKEIMVKYVLKNKYVWYLALANIFVYLIRQGVVNWIPIYLKESKGFSAANANWAMFLFEYAAIPASILLGWLSDVVFKGKRAPLSILCMIGVIFATVAYWQTSSTLVTMISVAFIGCFIYGPQLLIGMNLIDVVPNFAVGSATGFSGLCGYLLGEFMADFVLGMIADSFGWNGAFIFIIVGAFIALLLLALTLKIKKNPQVEDKIA | failed |
| MPPMPVPIRILSVLLLVAMSASATAAPKKAPPASPPSSAGASSLEPVLAGEFALQAGQLDDAARAYLDAAKAEAGDAGLAERAARISMLANDDPRAIEALALWRARAPSSMSMRSTEASLALRRNDLRTARRDLLGLLKEPDPRGWRFALIALANGGREPEASADVLEDLVKAGAIPNQIEAWQEFGRLALRMERPALAKRIVDEVVRRFPEEPRVALLHATQLQQEGKNDEALALLKNIEPQAVKDSELRGALAFAYDAMGQTEAAARVLSTGPQDTQTYGLRASMLAKEKDRSSLEALYAELKSNATKPDPDRRLLLGKIAEFLKRYDEAVEWYRGVPGGPQLSEARLRAASALYELGRKPEALAEARALQGDASADDDARRDAYVLEAELHQRADDAPGELDAFERGLAAYPDDSALLYARGLAWERRDDVPRAEADLRKILVTEPENVAALNALGYTLADRTTRYKEALALIDRARTADPDNPAIVDSYGWVLYRMGRTKEALVQLRRAWALVKDPEIAAHVGEVLWVSGKQDEARRYFDEARRLDPDNRALQRAVEKFGL | failed |
| SKYQLGMLHFSTQYDLLHNHLTVRVIEARDLPPPISHDGSRQDMAHSNPYVKICLLPDQKNSKQTGVKRKTQKPVFEERYTFEIPFLEAQRRTLLLTVVDFDKFSRHCVIGKVSVPLCEVDLVKGGHWWKALIP | not failed |
| MEITVIASSSIDEGIGSWDLKTGTEQLQFKPCASPAHGLTAVGEKFLASSQLSARNTSGSIFYWSWTKPQAEVKSYPVEPIKALAANNEGTYLVGGGISGDIYLWEVATGKLLKKWHGHYRSVTCLVFSGDDSLLVSGSQDGSIRVWSLIRLFDDFQRQQGNTLYEHNFNEHTMSVTDIVIDYGGCNAVIISSSEDRTCKVWSLSRGKLLKNIIFPSVINALALDPGGCVFYAGARDSKIYIGAINATSEYGTQVLGSVSEKGKAITCLAYCADGNLLISGSEDGVVCVWDPKSLRHVRTLIHAKGSRKGPVNNIQIVRKTIVANSNKTQVSWKSRGALIPPPLEKYERPVEDTMDGIVTVDPPPFSDVPVYSSFLSADLIDEQVKELQQQGSAATEMEMERLKLEYKRSLQMNEQWQKNYENLLQVVMEEEQIGGTN | failed |
| MANVVILGGNGYLGRNITKVWLEIDPKLEFYIVSRSGQNKLVDKRIHNIKVDVTNEKDVAKKRPDTFDYIIDCIGVPEKDPEKFKQINDLPAETMLALARKQKDPVMGFISGRLGPKTFIDGKAQILKELQDSSIKVASVSPNVVYGNGRKDSMTKMVPFLKFMDLFSAKMNPDDVVKDLINQMIKLHNS | failed |
| MTEIALIGNPNSGKTSLFNLLTGTSQRVGNWPGVTVERKSGNVKKLKEISVQDLPGIYSMSPYSPEEKVARDYLLSNHADSILNVVDATNLERNLYLTTQLIETGIPVTIALNMSDVLKNQGKSINSDKLAYQMGVPVVATSALKNTGVDKAVKKASQTTKGSVDSVQYPTYDAKFEAAIAQIIEVLGQTVPERSSRFYAIKLFERDRLVEEELDLSPFQKKEIKDIIQITEEVFTEDSESIVINQRYAFIERVSQMAQSQDNDFKMSASDKIDKIVTNRVLALPIFAVVMFLVYYLSIQTVGTMGTDWVNDILFGKYVPEFVTGVLEALKVQAWLQSLIIDGVVAGVGTVLGFLPQIFVLFICLGILEDIGYMSRIAFVMDRIFRRFGLSGKSFIPMLISTGCGVPGIMASRTIENERDRRITIMTTTFMPCSAKLSVIALIAGAFFPHNPWIAPSAYFMGMIAIILSGIALKKTSFLGGYTSPFIMELPSYHLPKVDAVLRYAFGKAMSFVKRAGTIIFSLTVLIWFMSSYNFTLHSVDTENSILASLGRLLAWIFTPLGFGNWKATVAALTGLAAKETVVATFGILYNNPDATETTHSLWVSLQGDYTALAAYSFLTFNLLCAPCFASIGAIKREMGNLKWTLVAIAYQTGLAYLVSLIIYQLGLVAFYGKPVTLWTGLALVLLLVMLYFIIRKPRQVKEKVITLDNLSLSHN | failed |
| MNQVEMTEFPVGKPQEALYGVASTPDGALWFTLAKGNAIGRLSPDGAVSRFPLPHADGQPTTITCGPDGRPWFTLSSANAIGRLAPDGALRMFELPRPASRPFGIAGGHDGCLWFAEMAGDRIGRITIDGDIEEYDLPVKGGYPSCMAAGRDGLMWFTLNQAGAVGSISATAAPRIFPLGAADAAPVGIASDAQGALWIAQAGNGAIARFDAGGRITEFPLHSRAARPHAIAADAAGNLWFTEWGANRIGRISEAGDLAGYELAAPGSEPHGIAIDPHGCVWAALETGRLVRLQASPRDLEHHHHHH | failed |
| MEGNSDSMILVTVNPKTKKTTMTSLERDILVKLSGSKTNDQTGYDAKLNAAYAAGGAKMAIMTVQDMLDIKIDKYVQINMEGLVQLVDAVGGITVTNHFDFPISIEEHEPEFTASVEPGTHKINGEQALVYSRMRYDDPDGDYGRQKRQREVISKVLKKILALDSVSKYRKILSAVSKNMQTNIEISSSTIPKLLGYSDALKSIRTYQLKGEGTTIDGGSYQLVTSKELLKAQNRIKGQLGLKKSTAENLKTTASLYENFYGGDTSIYDSSSSASDYSSSGNYSGSSSDYGSSSSYGSNSSSGSSSDYSGQNSYNQGNYQQPAAGTGIGNLEHHHHHH | not failed |
| MYIEMAQQQQQSGSDNSMAPVWIVILLFITAYFVWALAHQYIVSFVFTINIWQARLVNLFLNNQLLANQIYLMQTLDPNTVNWDQMVTVMRAVGDYMRYPVICILVVLAFVLYNSNVTLKYRKTYDMKSLRAQEQFNWPAIMPIVKEDLVSQDVNKGPWAMALTPMEFARKYNLLRKDDALLDNPVPGEEMTAGIRRGDAKRVFTMQLGPYWDGFERCSPQAYALSAVFMARMNRDRDAANNILKVLDKTFVDGKPDFSVARPVMKKYQNSELVQEVVAKHAYVLTVIASLLEAAREDGVVPSSEFLWLKPVDRRLWYMLNCVGRQTPYSEVAGPFAHWKAEKEMGRRSLVPMIDEAIRALEIAVKEVRLTPRQMEELEP | failed |
| MKTREEKMNKTILLLACLLGLVACSSQYIMSTKDGKMITSDSKPKLDKTTGMYLYYDEDGREVMIKQEDVTQIIERLEHHHHHH | not failed |
| MDIKNGLFIIGVIPTILFAVLTFIFWWKIRKLKDLRTLRLGRLSFFALLFLWITINGIIGSGLVLTELHQNVLLLLLIAEAVVMFLIIPMIIGIIVPISIVVLTIKMWRRESKSIGNLLLAIVVLTFLVVDWIHLSMGRLPDSWIWLKILGMVYPILSIYLAWQFGIFFLSSWVYGRRVRKQRANYYVVLGAGLIQGEHVGKLLGNRILAAVKAVRDNETILVFSGGQGPDEKVSEARAMQRYAVEVLGFPIERTMLEDQSRTTYENLFFSSQLIREKFLFFTSDYHVFRAALFAAMLKLEAQGGKGGKTAMYYRVPAFIREFIAVLNYEKKKHMIRVGIIVAIFLSIAIVSQIGYFWNQR | failed |
